Experiment in all cases: SPR; WT or point-mutant CRT immobilised on a biosensor chip at about 500 RU by primary amine coupling, SE 15mer peptides run as analyte; read-out RU, mean ± SEM; 25°C, 10 mM HEPES pH 7.4, 50 mM KCl, 0.5 mM CaCl2, 100 µM ZnCl2, 0.005% surfactant P-20, flow 10 µl/min
Assay [1] has as its target CRT D220A mutant, 6xHis-tagged (not stated (rabbit or mouse cDNA cloned)) (UniProt P14211).
Assay [2] addresses CRT E217A mutant, 6xHis-tagged (not stated (rabbit or mouse cDNA cloned)) (UniProt P14211).
Assay [3] addresses CRT E223A mutant, 6xHis-tagged (not stated (rabbit or mouse cDNA cloned)) (UniProt P14211).
Assay [4] concerns the target CRT H224A mutant, 6xHis-tagged (not stated (rabbit or mouse cDNA cloned)) (UniProt P14211).
For assay [5], the target named is CRT N279A mutant, 6xHis-tagged (not stated (rabbit or mouse cDNA cloned)) (UniProt P14211).
Assay [6] has as its target CRT Y254A mutant, 6xHis-tagged (not stated (rabbit or mouse cDNA cloned)) (UniProt P14211).
Assay [7] deals with wild-type CRT, 6xHis-tagged, from the pBAD vector (not stated (rabbit or mouse cDNA cloned)) (UniProt P14211).

“SE-expressing 15mer synthetic peptide 65-79*0404”: the RU in assay [1] worked out at 120 RU; in assay [2], 106 RU; in assay [3] it was 84.6 RU; in assay [4], 128 RU; in assay [5] it was 145 RU; in assay [6] it was 113 RU. Further, in assay [7], the RU stood at 128 RU.
“SE-expressing 15mer synthetic peptide 65-79*0401”: the RU in assay [1] was determined as 70.1 RU; in assay [2], 50.9 RU; in assay [3] it was 56.7 RU; in assay [4] it was 68.2 RU; in assay [5], 106 RU; in assay [6], 66.5 RU. For the same substance, in assay [7], the RU is 71.2 RU.

The record behind these values is publication PMC2908537.
